Legend:
[1] = biological target: T1, human serum albumin (Homo sapiens, UniProt P02768); assay: SPR pH 7.4
[2] = biological target: T2, sheep serum albumin (Ovis aries, UniProt P14639); assay: SPR pH 7.4
T2 chain: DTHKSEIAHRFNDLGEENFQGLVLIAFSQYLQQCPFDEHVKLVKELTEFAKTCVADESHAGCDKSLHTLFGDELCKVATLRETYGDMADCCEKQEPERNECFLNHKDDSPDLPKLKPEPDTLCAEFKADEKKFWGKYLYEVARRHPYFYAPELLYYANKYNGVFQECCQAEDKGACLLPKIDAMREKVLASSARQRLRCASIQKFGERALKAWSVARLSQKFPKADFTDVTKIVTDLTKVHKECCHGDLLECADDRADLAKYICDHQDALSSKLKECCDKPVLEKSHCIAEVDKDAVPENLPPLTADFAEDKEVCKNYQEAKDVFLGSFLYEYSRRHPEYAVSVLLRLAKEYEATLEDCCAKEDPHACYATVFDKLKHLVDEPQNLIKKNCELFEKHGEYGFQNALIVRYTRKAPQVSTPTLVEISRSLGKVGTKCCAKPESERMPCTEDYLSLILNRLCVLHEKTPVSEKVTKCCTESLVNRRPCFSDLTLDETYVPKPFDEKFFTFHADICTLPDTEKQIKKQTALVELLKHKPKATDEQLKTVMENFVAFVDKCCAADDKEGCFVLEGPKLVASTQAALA

[3] = biological target: T3, pig serum albumin (Sus scrofa, UniProt P08835); assay: SPR pH 7.4
T3 chain: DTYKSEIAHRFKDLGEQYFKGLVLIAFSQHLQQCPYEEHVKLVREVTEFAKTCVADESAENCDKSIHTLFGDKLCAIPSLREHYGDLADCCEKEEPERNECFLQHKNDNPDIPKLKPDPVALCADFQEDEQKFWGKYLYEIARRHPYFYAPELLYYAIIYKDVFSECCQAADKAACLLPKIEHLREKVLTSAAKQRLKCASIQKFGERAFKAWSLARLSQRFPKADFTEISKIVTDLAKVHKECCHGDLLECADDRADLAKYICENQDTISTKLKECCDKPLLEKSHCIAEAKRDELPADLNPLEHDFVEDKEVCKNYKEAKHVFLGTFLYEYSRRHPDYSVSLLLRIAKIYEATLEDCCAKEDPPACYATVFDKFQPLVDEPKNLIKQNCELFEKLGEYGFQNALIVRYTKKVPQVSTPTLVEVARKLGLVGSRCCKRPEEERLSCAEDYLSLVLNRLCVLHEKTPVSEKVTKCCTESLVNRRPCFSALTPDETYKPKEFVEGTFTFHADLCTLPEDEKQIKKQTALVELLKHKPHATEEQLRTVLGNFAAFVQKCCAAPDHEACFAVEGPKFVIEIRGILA

[4] = biological target: T1, human serum albumin; assay: SPR pH 5.0
[5] = biological target: T4, cynomolgus serum albumin (Macaca fascicularis, UniProt A2V9Z4); assay: SPR pH 7.4
T4 chain: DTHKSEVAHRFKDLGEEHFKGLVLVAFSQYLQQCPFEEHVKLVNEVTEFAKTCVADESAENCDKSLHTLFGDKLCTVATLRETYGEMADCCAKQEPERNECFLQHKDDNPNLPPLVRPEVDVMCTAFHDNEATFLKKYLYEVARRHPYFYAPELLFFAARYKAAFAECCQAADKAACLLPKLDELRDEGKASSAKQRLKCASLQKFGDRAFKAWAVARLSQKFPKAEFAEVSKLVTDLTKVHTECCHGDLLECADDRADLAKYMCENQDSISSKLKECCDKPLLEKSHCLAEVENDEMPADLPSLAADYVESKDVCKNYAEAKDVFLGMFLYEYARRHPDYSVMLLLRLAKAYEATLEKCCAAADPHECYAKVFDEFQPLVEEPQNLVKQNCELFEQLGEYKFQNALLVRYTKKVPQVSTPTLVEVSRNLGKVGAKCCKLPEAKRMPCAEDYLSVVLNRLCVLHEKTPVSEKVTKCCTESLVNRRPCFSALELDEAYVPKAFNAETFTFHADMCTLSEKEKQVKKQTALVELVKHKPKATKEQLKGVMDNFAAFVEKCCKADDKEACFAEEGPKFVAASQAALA

[6] = biological target: bovine serum albumin (Bos taurus, UniProt P02769); assay: SPR pH 7.4
[7] = biological target: T1, human serum albumin; assay: SPR pH 6.0
[8] = biological target: T5, rat serum albumin (Rattus norvegicus, UniProt P02770); assay: SPR pH 7.4
T5 chain: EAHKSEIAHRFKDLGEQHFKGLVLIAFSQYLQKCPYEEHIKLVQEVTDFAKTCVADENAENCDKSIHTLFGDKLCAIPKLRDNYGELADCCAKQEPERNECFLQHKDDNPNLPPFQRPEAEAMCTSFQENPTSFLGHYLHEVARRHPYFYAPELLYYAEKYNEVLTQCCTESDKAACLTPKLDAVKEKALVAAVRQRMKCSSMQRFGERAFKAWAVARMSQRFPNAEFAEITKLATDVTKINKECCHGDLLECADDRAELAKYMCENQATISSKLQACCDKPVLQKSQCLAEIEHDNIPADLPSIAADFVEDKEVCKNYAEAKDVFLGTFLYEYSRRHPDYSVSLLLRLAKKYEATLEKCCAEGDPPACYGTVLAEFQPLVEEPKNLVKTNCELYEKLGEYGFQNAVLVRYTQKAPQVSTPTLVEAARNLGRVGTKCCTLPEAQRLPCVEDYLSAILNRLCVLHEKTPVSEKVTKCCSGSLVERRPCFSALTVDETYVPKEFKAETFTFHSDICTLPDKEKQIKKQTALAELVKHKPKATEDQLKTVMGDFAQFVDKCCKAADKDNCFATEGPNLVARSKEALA

[9] = biological target: T1, human serum albumin; assay: SPR pH 7.4; remark: listed apart in the source
[10] = biological target: T6, rabbit serum albumin (Oryctolagus cuniculus, UniProt P49065); assay: SPR pH 7.4
T6 chain: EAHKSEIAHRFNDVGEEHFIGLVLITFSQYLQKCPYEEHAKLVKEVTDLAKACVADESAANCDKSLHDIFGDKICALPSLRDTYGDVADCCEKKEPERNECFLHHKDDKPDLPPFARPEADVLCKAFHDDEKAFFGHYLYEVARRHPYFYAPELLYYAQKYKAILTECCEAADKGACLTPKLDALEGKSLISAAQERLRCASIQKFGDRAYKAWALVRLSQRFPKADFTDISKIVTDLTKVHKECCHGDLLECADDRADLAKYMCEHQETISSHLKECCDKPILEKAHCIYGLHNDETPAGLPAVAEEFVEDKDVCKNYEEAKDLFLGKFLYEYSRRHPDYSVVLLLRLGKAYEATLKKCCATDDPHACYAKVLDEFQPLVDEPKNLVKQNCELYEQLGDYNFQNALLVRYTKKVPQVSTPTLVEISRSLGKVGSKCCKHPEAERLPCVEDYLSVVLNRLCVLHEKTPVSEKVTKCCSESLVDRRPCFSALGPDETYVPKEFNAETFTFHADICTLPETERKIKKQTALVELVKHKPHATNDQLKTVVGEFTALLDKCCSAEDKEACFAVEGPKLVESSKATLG

[11] = biological target: mouse serum albumin (Mus musculus, UniProt P07724); assay: SPR pH 7.4
[12] = biological target: T7, dog serum albumin (Canis lupus familiaris, UniProt P49822); assay: SPR pH 7.4
T7 chain: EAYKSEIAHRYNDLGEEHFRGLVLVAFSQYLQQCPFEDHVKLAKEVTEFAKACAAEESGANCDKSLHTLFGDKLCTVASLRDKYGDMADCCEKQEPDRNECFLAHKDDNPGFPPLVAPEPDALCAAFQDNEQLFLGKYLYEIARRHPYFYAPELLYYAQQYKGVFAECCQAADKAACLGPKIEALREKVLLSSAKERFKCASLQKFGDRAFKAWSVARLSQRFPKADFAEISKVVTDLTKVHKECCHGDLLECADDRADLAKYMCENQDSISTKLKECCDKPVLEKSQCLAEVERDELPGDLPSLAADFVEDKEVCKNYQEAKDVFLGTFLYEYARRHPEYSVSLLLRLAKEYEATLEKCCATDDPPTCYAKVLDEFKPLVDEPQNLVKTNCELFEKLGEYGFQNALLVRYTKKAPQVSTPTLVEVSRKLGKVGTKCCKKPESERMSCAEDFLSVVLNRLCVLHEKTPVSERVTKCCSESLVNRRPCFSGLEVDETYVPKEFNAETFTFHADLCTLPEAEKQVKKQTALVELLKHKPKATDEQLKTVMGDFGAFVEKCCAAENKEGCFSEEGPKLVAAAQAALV

B1: SEQ ID NO:19 serum albumin binder (T023500029) (antibody, V domains shown)
VH: EVQLVESGGGVVQPGDSLRLSCAASGGTFSTYVMGWFRQAPGKEREFVSAISQNSIHTYYANSVKGRFTISRDNSKNTVYLQLNSLRPEDTALYYCAASRFTSWYTADYEYDYWGQGTLVTVSS
For B1, which koff [1] is on record?
The koff was 0.0002 s⁻¹.

Does B1 bind [2]?
Result: no binding

And the Kd [3]?
Its Kd is 45 nM.

What about the koff [4] of the same binder?
Its koff is 0.00051 s⁻¹.

And the Kd [5]?
The Kd was 0.45 nM.

Does B1 bind [6]?
Result: no binding

And the koff [7]?
Its koff is 0.00032 s⁻¹.

What about the Kd [8] of the same binder?
The Kd was 0.067 nM.

And the Kd [9]?
The Kd was 0.44 nM.

Does B1 bind [10]?
Result: no binding

What about the Kd [11] of the same binder?
Its Kd is 0.27 nM.

What about the Kd [12] of the same binder?
Its Kd is 1.2 nM.

Source: patent publication EP4442707
